The target of series [1] is Clr-b residues 74-194, E. coli expressed and refolded (mouse) (UniProt Q91V08). As to the kind of experiment: AUC; sedimentation velocity, Clr-b alone at higher concentrations (25–200 μM); 10 mM Tris-HCl pH 8.0, 0.15 M NaCl, 20 °C; monomer to dimer.
For series [2] the target is unchanged. In words: crystal structure; Clr-b and NKR-P1B^B6 mixed 1:1, 5 mg/ml; 21% PEG 3350, 0.1 M Bis/Tris pH 5.9, 5% glycerol, 0.2 M ammonium sulfate, 20 °C; 2.9 Å.
The next series deals with NKp65 (Homo sapiens) (UniProt D3W0D1). Conditions: cited from earlier work.
Chain of NKp65 (Homo sapiens) (D3W0D1 whole entry): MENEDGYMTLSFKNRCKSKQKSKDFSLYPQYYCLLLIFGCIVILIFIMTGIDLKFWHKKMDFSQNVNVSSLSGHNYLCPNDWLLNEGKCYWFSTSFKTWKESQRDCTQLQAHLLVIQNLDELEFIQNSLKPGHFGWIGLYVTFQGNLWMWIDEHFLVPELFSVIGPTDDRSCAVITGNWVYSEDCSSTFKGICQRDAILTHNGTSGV
Series [3] addresses extended Clr-b, C-terminally extended version terminating at Ser207, His-tagged (mouse) (UniProt Q91V08). As to the kind of experiment: AUC; sedimentation velocity, 120 μM each of extended Clr-b and NKR-P1B constructs, alone and in combination; 10 mM Tris-HCl pH 8.0, 0.15 M NaCl, 20 °C.
Series [4] has as its target T1, NKR-P1B (B6 allele) C-type lectin-like domain with C-terminal BirA tag and His tag, biotinylated monomer (mouse, UniProt Q99JB4 89-215, biotin on the BirA tag).
T1 chain: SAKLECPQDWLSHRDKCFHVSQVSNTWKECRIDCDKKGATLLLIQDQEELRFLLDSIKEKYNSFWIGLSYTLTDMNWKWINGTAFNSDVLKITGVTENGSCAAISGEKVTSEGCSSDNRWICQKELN
As to the kind of experiment: SPR.

Series [5] deals with the molecule itself. As to the kind of experiment: crystal structure; Clr-b and NKR-P1B^B6 mixed 1:1, 5 mg/ml; 21% PEG 3350, 0.1 M Bis/Tris pH 5.9, 5% glycerol, 0.2 M ammonium sulfate, 20 °C; 2.9 Å.

Chain of extended Clr-b, C-terminally extended version terminating at Ser207, His-tagged (mouse) (Q91V08 74-207): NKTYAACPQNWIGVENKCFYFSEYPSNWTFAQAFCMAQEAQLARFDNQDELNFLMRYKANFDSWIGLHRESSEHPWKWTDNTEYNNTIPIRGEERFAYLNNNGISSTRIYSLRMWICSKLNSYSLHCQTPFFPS

“Clr-b residues 74-194, E. coli expressed and refolded (from UniProt Q91V08 74-194) (domain or fragment)”: the stoichiometry N in series [1] and in series [2] was 2 in each case.

In the case of KACL (from UniProt Q6UVW9), in the series with NKp65 (Homo sapiens), the Kd was 0.0007 µM.

Regarding “extended NKR-P1B (B6 allele) containing the membrane proximal stalk, starting from Gln72, His-tagged (from UniProt Q99JB4 72-223) (domain or fragment)”, in series [3], the fraction of total in the species of the complex is 6% and the stoichiometry N (NKR-P1B per Clr-b chain) was 0.5.

B1: m12, mouse cytomegalovirus-encoded decoy ligand (ligand)
chain: TNVLAAPKNTSCVKKFTVSERRPPPEPGKCMSLLGSTLVNKQAANKQVDKPVTILKIFRCPVEEYLCMNATWSGRLFVRTQDNREIIFGNISFTSTDSSPTTLTGISTLKPWPLSSDLWIHSGTGDIYMFSNASFSDPKCYITLCVLRKNAHIPVQRANFAFGVTDENLVTPTSTRTVDN
Molecule B1 displayed a Kd in series [4] of 21.6 µM.

B2: NKR-P1B (B6 allele) C-type lectin-like domain, His-tagged (domain or fragment, mouse)
chain: T1 chain
modifications: N-acetylglucosamine on Asn169 (seen in the structure)
notes: NKR-P1B, B6 (C57BL/6) allele of Klrb1b, mouse, C-type lectin-like domain; Construct for structural and AUC experiments; also called ectodomain of NKR-P1B^B6
In turn, B2 yielded a stoichiometry N (NKR-P1B per Clr-b chain) in series [2] of 0.5. For the same molecule, the “stoichiometry N” value in series [5] was 2.

(Values after article PMC6218473, “Recognition of host Clr-b by the inhibitory NKR-P1B receptor provides a basis for missing-self recognition” (Nature Communications, 2018).)
